Experiment [1] addresses SARS-CoV-2 RBD (pCoV08, RBD-His6) (SARS-CoV-2 (Wuhan-Hu-1)) (UniProt P0DTC2). The experiment can be described thus: BLI, RBD on probe, antibody, then hACE2 (blocked ligand). In general terms: Biolayer interferometry detects binding as a change in optical thickness at a sensor tip.
For experiment [2], the target named is SARS-CoV-2 stabilized Spike trimer (S-2P) (SARS-CoV-2) (UniProt P0DTC2).

As usually defined, the EC50 (read off the curve) is the concentration needed to bring the measured effect to its halfway point. Regarding CR3022 (antibody), the EC50 (read off the curve) in experiment [1] was found to be 10 µg/mL; in experiment [2], 30 µg/mL.

The record behind these values is patent US20230331823A1.
